Numbering of substitutions follows the chain as printed. Each block holds one binder with its values, some of them ahead of it.
What was measured:
[1] = target: T1, cynomolgus ROR1 on CHO-K1-cynoROR1 cells (cynomolgus monkey, UniProt A0A2K5WTX7 30-937); assay: flow cytometry, CHO-K1-cynoROR1 cells
T1 construct: whole, on cells
Procedure: (§1) Binding of recombinant anti-ROR1 antibodies to human or cynomolgus ROR1-overexpressing cells was tested by flow cytometry. In this example, ROR1-expressing cell lines are HEK293T cell lines that had been transfected to express human ROR1 on the surface (HEK293T-hu ROR1, KYINNO BIOTECHNOLOGY CO., LTD, Catalog #KC-1018), CHO-K1 cell lines that had been transfected to express cynomolgus ROR1 (CHOK1-cyno ROR1), PANC-1 (ATCC, catalog: CRL-1469) or A549 cell lines (Shanghai Institute of Biochemistry and Cell Biology, Chinese Academy of Sciences).
(§2) In brief, anti-ROR1 antibodies were serially diluted in staining buffer (PBS containing 2% FBS). Antibody solution was incubated with 1×10⁵ cells at 4° C. for 1 hour. […] After 1-hour incubation at 4° C., cells were washed twice with staining buffer and subjected to flow cytometry. PR000374 (Bench marker 1) and non-relevant IgG isotype control (Crownbio) were used as positive and negative controls, respectively.

[2] = target: T2, human ROR1 on cells (HEK293T-hROR1, PANC-1, A549) (human, UniProt Q01973 30-937); assay: flow cytometry, PANC-1 cells
T2 construct: whole, on cells; one molecule for the three cell lines; also called huROR1; cell surface ROR1
T2 sequence (Q01973 30-937): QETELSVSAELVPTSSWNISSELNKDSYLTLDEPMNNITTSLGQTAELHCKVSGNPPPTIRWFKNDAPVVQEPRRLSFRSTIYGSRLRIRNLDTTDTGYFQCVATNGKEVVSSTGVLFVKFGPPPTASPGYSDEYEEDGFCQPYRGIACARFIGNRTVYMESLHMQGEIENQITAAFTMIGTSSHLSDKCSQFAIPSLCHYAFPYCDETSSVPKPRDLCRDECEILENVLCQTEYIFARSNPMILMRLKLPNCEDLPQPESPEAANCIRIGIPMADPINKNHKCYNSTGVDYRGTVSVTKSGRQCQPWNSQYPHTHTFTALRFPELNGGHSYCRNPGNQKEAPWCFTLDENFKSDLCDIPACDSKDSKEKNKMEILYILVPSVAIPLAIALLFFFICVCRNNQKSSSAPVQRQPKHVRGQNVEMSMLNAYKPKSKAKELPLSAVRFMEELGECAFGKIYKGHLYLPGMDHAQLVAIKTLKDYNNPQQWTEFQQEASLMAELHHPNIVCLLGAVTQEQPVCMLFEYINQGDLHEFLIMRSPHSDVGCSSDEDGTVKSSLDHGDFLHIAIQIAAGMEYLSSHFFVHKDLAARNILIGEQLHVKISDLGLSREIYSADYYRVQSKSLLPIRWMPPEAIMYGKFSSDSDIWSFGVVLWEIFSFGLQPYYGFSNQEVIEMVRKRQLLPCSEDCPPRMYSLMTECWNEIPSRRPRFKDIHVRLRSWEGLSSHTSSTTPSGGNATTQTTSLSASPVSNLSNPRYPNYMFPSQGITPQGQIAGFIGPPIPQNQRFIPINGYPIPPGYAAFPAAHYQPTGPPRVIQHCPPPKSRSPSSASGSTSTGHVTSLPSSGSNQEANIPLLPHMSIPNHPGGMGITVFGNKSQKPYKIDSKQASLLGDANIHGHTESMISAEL
Procedure: as §2

[3] = target: T2, human ROR1 on cells (HEK293T-hROR1, …); assay: flow cytometry on PANC-1 cells, MFI (APC-A Median)
Procedure: as §1, §2

[4] = target: T1, cynomolgus ROR1 on CHO-K1-cynoROR1 cells; assay: flow cytometry on CHOK1-cynoROR1 cells, MFI (APC-A Median) [top panel]
Procedure: as §1, §2

[5] = target: T3, Human ROR1-ECD-his (Acro Biosystems RO1-H522y) (human, UniProt Q01973 30-406); assay: BLI, ROR1-His on HIS1K sensor, antibody in solution
T3 construct: extracellular domain; bought protein; also called hROR1-ECD-his; hu-ROR1-ECD-his
T3 sequence (Q01973 30-406): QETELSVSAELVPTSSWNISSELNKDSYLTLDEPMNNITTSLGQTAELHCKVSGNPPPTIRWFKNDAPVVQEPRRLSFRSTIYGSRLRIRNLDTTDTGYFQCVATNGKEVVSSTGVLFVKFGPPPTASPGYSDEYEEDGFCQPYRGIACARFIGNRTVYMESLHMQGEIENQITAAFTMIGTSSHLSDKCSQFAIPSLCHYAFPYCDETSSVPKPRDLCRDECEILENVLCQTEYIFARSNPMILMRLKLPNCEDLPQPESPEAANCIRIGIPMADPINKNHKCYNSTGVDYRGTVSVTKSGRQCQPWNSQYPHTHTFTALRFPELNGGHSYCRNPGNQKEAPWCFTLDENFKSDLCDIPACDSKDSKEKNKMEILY
Procedure: In the example, binding kinetics of anti-ROR1 antibodies to soluble ROR1 protein were analyzed by using Bio-Layer Interferometry (BLI) analysis on Fortebio Octet Red384 instrument (Fortebio).
In BLI analysis, recombinant anti-ROR1 antibodies was serially diluted with 10× kinetics buffer (Fortebio). Human ROR1-His proteins were diluted to 20 nM. Then the diluted antibodies, ROR1 proteins and regeneration buffer (10 mM glycine HCl pH 1.5) were added to 96-well plates (Greiner). Rate constants for association and dissociation were measured using HIS1K sensor (Fortebio). The sensor surface was regenerated after each binding experiment with regeneration buffer. The traces were processed using Octet Data Analysis Software (version 11.0, Pall ForteBio, CA, USA).

[6] = target: T1, cynomolgus ROR1 on CHO-K1-cynoROR1 cells; assay: flow cytometry, CHO-K1-cynoROR1 cells; remark: listed apart in the source
Procedure: as §2

[7] = target: T2, human ROR1 on cells (HEK293T-hROR1, …); assay: flow cytometry, HEK293T-hROR1 cells
Procedure: as §2

[8] = target: T4, hu-ROR2-ECD-his (Acrobiosystems RO2-H52E5) (human, UniProt Q01974 34-403); assay: ELISA, plate coated with hu-ROR2-his at 1 µg/mL
T4 construct: extracellular domain; bought protein; also called Human ROR2 his-tagged protein; Human ROR2, His Tag
T4 sequence (Q01974 34-403): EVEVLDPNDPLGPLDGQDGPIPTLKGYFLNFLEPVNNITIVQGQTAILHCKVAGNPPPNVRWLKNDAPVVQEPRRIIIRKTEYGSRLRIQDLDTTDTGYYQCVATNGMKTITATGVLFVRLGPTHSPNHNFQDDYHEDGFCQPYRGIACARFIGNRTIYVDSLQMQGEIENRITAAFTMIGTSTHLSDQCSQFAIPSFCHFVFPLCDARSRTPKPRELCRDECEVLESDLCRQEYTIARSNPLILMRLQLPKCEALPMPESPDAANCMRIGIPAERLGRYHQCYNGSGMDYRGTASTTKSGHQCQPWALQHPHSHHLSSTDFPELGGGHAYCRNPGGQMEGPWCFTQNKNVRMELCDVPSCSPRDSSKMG
Procedure: 1 μg/mL hu-ROR2-ECD-his (Acrobiocystems, RO2-H52E5) was added to the 96-well plate, 100 μL each well, incubated at 4° C. overnight, washing the plates with 1×PBST 3 times, 300 ul/well, blocking the plates with 2% BSA in 1×PBST, 200 ul/well at 37° C. for 1 hour, anti-ROR1 antibodies were serially diluted in staining buffer (PBS containing 2% BSA). Antibody solution was added to the plate and incubates at 37° C. for 1 hour, washing the plates with 1×PBST 3 times, 300 ul/well, adding secondary antibody 100 ul/well and incubate at 37° C. for 1 hour, washing the plates with 1×PBST 3 times, 300 ul/well and then add 100 ul/well TMB for about 5 min, stop the reaction by adding 100 ul/well 2M H₂SO₄, read the plates with Molecular device spectra max plus384 at 450 nm and 570 nm.

[9] = target: T3, Human ROR1-ECD-his (Acro Biosystems …); assay: ELISA, coated hu-ROR1-ECD-his
Procedure: Binding of recombinant anti-ROR1 antibodies to hu-ROR1-ECD-his was tested by ELISA. In brief, 1 μg/mL hu-ROR1-ECD-his was added to the 96-well plate, 100 μL each well, incubated at 4° C. overnight, washing the plates with 1×PBST 3 times, 300 ul/well, blocking the plates with 2% BSA in 1×PBST, 200 ul/well at 37° C. for 1 hour, anti-ROR1 antibodies were serially diluted in staining buffer (PBS containing 2% BSA). Antibody solution was added to the plate and incubates at 37° C. for 1 hour, washing the plates with 1×PBST 3 times, 300 ul/well, adding secondary antibody 100 ul/well and incubate at 37° C. for 1 hour, washing the plates with 1×PBST 3 times, 300 ul/well and then add 100 ul/well TMB for about 5 min, stop the reaction by adding 100 ul/well 2M H₂SO₄, read the plates with Molecular device spectra max plus384 at 450 nm and 570 nm.

[10] = target: T2, human ROR1 on cells (HEK293T-hROR1, …); assay: flow cytometry, A549 cells
Procedure: as §2

[11] = target: T2, human ROR1 on cells (HEK293T-hROR1, …); assay: flow cytometry, PANC-1 cells; remark: listed apart in the source
Procedure: as §2
Binding activity of the variants to PANC-1 cells were tested using the same method described in example 5.1. The results were shown in FIGS. 7-8 and Table 11 and Table 12.

Max [1]: 14400
Max [2]: 4250
B1: PR005350 (antibody, human IgG1, V domains shown)
VH: EVQLVESGGGLVKPGGSLRLSCAASGFTLSDSQMSWIRQAPGKGVEWVSYISSSGNTIYYGDSVKGRFTISRDNAKNSLFLQMNSLRAEDTAVYYCARVPPSSSNWYEDFDIWGQGTLVTVSS
notes: HCAb (heavy chain-only, human IgG1 Fc), no light chain

Max [1]: 34800
Max [2]: 16200
EC50 (read off the curve) [3]: ~2 nM
EC50 (read off the curve) [4]: ~4 nM
B2: PR005339 (antibody, human IgG1, V domains shown)
VH: EVQLVESGGGLVKPGGSLKLSCAASGFTFSDYYMSWIRQAPGKGVEWISYISNNGSTIHYADSVKGRFTISRDNAKNSLYLQMNSLRAEDTAVYYCARDFNNGWYEDFDYWGQGTLVTVSS
notes: as for B1

Kd [5]: 6.83 nM
koff [5]: 0.00336 s⁻¹
kon [5]: 492000 M⁻¹ s⁻¹
EC50 [6]: 0.804 µg/mL
MAX(MFI) [6]: 1.1e+07 MFI
EC50 [2]: 1.07 µg/mL
MAX(MFI) [2]: 552000 MFI
EC50 [7]: 0.267 µg/mL
MAX(MFI) [7]: 1.49e+07 MFI
binding result [8]: no binding (tested: about 15 µg/ml)
EC50 [9]: 0.002 µg/mL
EC50 [10]: 1.32 µg/mL
MAX(MFI) [10]: 791000 MFI
B3: PR303155 (antibody, human IgG1, V domains shown)
VH: B2 VH with K19R, F29L, V45L, N53S, H59Y, K76R, V93L, F100V, N101S, N102S
notes: as for B1

Max [1]: 34500
Max [2]: 16700
EC50 (read off the curve) [3]: ~4 nM
EC50 (read off the curve) [4]: ~7 nM
B4: PR005342 (antibody, human IgG1, V domains shown)
VH: EVQLVESGGGLVKPGGSLRLSCAASGFNFSDYYMSWIRQAPGKGLEWISYISNSSSTIYYADSVKGRFTISRDNAKNSLYLQMSRLRAEDTAMYYCARDTTNGWYEDFDYWGQGTLVTVSS
notes: as for B1

Max [1]: 24600
Max [2]: 9710
B5: PR005345 (antibody, human IgG1, V domains shown)
VH: EVQLVESGGGLVKPGGSLRLSCAASGFTFSDYYMSWIRQAPGKGLEWIAYISSSGSTIHYSDSVKGRFTISRDNAKNSLYLQMNSLRAEDTAVYYCARDTPSSSSDWVSLQFDYWGQGTPVTVSS
notes: as for B1

Max [1]: 28000
Max [2]: 10200
B6: PR005348 (antibody, human IgG1, V domains shown)
VH: EVQLVESGGGLVKPGGSLRLSCAASGFTFSDYYMSWIRQTPGKGLEWVSYISRSGSTKYYADSVKGRFTISRDNAKNSLYLQMNSLRAEDTAVYYCARDAPSSNSDWVSLHFDHWGQGTLVTVSS
notes: as for B1

TOP [11]: 86600
B7: PR007421 (antibody, V domains shown)
VH: EVQLVESGGGLVKPGGSLRLSCAASGFTFSDFYMSWIRQAPGKGLEWISYIDSSGRPLAYADSVKGRFTISRDNAKNSLYLQMNSLRAEDTAIYYCARDMPSSSSDWVSLQFDYWGQGTLVTVSS
notes: bivalent form (HCAb) variant of PR005340, no light chain

Max [1]: 32900
Max [2]: 16500
EC50 (read off the curve) [3]: ~2 nM
EC50 (read off the curve) [4]: ~3 nM
B8: PR005341 (antibody, human IgG1, V domains shown)
VH: EVQLVESGGGLVKPGGSLRLSCVASGFTFSDYYMSWIRQAPGKGLEWISYISSSGSSIYYAESVKGRFTISRDNAKNSLYLQMNRLRAEDTALYYCARTPPSSDNWYEDFDYWGQGALVTVSS
notes: as for B1

Kd [5]: 14.1 nM
koff [5]: 0.00173 s⁻¹
kon [5]: 123000 M⁻¹ s⁻¹
EC50 [6]: 1.43 µg/mL
MAX(MFI) [6]: 6.85e+06 MFI
EC50 [2]: 11.3 µg/mL
MAX(MFI) [2]: 462000 MFI
EC50 [7]: 0.191 µg/mL
MAX(MFI) [7]: 1.53e+07 MFI
binding result [8]: no binding (tested: about 15 µg/ml)
EC50 [9]: 0.006 µg/mL
EC50 [10]: 6.79 µg/mL
MAX(MFI) [10]: 408000 MFI
B9: PR303199 (antibody, human IgG1, V domains shown)
VH: EVQLVESGGGLVKPGGSLRLSCAASGFTFSDYYMSWIRQAPGKGLEWIAYISSSGSTIYYADSVKGRFTISRDNAKNSLYLQMNSLRAEDTAIYYCAREYYGSENYDHFDYWGQGTLVTVSS
notes: as for B1

Max [1]: 26600
Max [2]: 10200
B10: PR005346 (antibody, human IgG1, V domains shown)
VH: EVQLVESGGGLVKPGGSLRLSCAASGFTLSDYYMSWIRQAPGKGLEWVSNISKNGFTIYYAESVKGRFTVSRDNAKNSLYLQMNSLRAEDTAIYYCARDSSGWYSEFDYWGQGTLVTVSS
notes: as for B1

Max [1]: 34100
Max [2]: 18300
EC50 (read off the curve) [3]: ~2 nM
EC50 (read off the curve) [4]: ~4 nM
B11: PR005343 (antibody, human IgG1, V domains shown)
VH: EVQLVESGGGLVKPGGSLRLSCVASGFTFSDYYMSWIRQAPGKGMEWISYISSSGSTKNYANSVKGRFTISRDNAKNSLYLQMNSLRAEDTAAYYCARVPPYNASWYEDFDYWGQGTLVTVSS
notes: as for B1

Max [1]: 32700
Max [2]: 16400
EC50 (read off the curve) [3]: ~8 nM
EC50 (read off the curve) [4]: ~10 nM
B12: PR005347 (antibody, human IgG1, V domains shown)
VH: B11 VH with A24T, S53T, S54T, N77S, Y102S
notes: as for B1

Kd [5]: 11.1 nM
koff [5]: 0.0031 s⁻¹
kon [5]: 278000 M⁻¹ s⁻¹
EC50 [6]: 0.474 µg/mL
MAX(MFI) [6]: 1.04e+07 MFI
EC50 [2]: 0.654 µg/mL
MAX(MFI) [2]: 653000 MFI
EC50 [7]: 0.158 µg/mL
MAX(MFI) [7]: 1.35e+07 MFI
binding result [8]: no binding (tested: about 15 µg/ml)
EC50 [9]: 0.002 µg/mL
EC50 [10]: 0.93 µg/mL
MAX(MFI) [10]: 875000 MFI
B13: PR303145 (antibody, human IgG1, V domains shown)
VH: QVQLVESGGGLVKPGGSLRISCAASGFTFSNYNMSWIRQAPGKGVEWVSHISGSGRTIYYAESVKGRFTISRDNAKNSLYLQMNSLRAEDTAMYYCARDLSSGWYEDFDYWGQGTLVTVSS
notes: as for B1

Max [1]: 31100
Max [2]: 14700
EC50 (read off the curve) [3]: ~20 nM
EC50 (read off the curve) [4]: ~20 nM
B14: PR005337 (antibody, human IgG1, V domains shown)
VH: B6 VH with T28I, T40A, R53S, K58I, Y59H, I70V, A88T, A100P, S102T
notes: as for B1

Source: patent publication US20250257130A1 (NONA BIOSCIENCES SUZHOU, published 2025)
